Test [1] deals with T1, human MAdCAM expressed on cells (human, UniProt Q13477 19-382).
T1 construct: whole, on cells
T1 sequence (looked up): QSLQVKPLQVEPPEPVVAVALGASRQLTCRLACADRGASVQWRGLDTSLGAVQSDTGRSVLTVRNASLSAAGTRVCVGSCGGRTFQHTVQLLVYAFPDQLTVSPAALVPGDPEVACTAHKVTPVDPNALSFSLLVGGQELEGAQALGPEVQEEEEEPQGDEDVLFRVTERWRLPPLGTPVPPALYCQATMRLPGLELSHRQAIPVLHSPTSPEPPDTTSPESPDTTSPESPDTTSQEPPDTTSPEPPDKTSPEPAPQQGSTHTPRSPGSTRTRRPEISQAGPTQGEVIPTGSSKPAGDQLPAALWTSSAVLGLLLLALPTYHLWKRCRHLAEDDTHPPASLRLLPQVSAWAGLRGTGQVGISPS
Briefly: cell binding.

Test [2] has as its target T2, mouse MAdCAM expressed on cells (mouse, UniProt Q61826 22-405).
T2 construct: whole, on cells
T2 sequence (looked up): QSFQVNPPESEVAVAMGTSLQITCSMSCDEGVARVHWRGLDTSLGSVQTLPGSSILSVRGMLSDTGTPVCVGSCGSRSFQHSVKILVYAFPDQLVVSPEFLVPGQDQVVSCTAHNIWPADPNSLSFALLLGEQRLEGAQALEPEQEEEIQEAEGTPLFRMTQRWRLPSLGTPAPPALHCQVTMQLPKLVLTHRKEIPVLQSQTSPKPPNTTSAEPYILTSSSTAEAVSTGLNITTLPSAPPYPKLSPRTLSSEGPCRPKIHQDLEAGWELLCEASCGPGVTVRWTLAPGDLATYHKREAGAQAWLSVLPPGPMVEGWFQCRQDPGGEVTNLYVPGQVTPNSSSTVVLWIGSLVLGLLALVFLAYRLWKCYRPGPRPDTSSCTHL
Briefly: cell binding.

B1: MAdCAM Antibody Table 2 clone 26 (antibody, V domains shown)
VH: EVQLLESGGGLVQPGGSLRLSCAASGFTFSSYAMSWVRQAPGKGLEWVSYISSSSTYTNYADSVKGRFTISRDNSKNTLYLQMNSLRAEDTAVYYCARANSSSWYDWYFDLWGQGTLVTVSS
VL: not shown
notes: IgG format
As for B1, the values for the binding result in test [1] and in test [2] were “binds” and “no binding”, respectively.

B2: MAdCAM Antibody Table 2 clone 27 (antibody, V domains shown)
VH: EVQLLESGGGLVQPGGSLRLSCAASGFTFSSYQMSWVRQAPGKGLEWVSYISSSSTYTNYADSVKGRFTISRDNSKNTLYLQMNSLRAEDTAVYYCARANSSSWYDWYFDLWGQGTLVTVSS
VL: not shown
notes: IgG format
Take B2: the binding result in test [1] is recorded as “binds”; in test [2] it was “no binding”.

B3: MAdCAM Antibody Table 2 clone 57 (antibody, V domains shown)
VH: EVQLLESGGGLVQPGGSLRLSCAASGFSVSSNYMSWVRQAPGKGLEWVAGISYDGSSKPYADSVKGRFTISRDNSKNTLYLQMNSLRAEDTAVYYCARSRGIAARPLQHWGQGTLVTVSS
VL: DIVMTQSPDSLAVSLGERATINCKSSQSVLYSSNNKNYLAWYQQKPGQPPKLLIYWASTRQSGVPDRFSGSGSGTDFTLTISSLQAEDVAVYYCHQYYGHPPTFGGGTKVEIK
notes: IgG format
As for B3, the binding result was “binds” in test [1] and “no binding” in test [2].

B4: MAdCAM Antibody Table 2 clone 54 (antibody, V domains shown)
VH: QVQLVQSGAEVKKPGSSVKVSCKASGGTLSRYGVSWVRQAPGQGLEWMGGIIPIFGTTNYAQKFQGRVTITADESTSTAYMELSSLRSEDTAVYYCARDRVYYDSSGYPTWYFDLWGRGTLVTVSS
VL: EIVMTQSPATLSVSPGERATLSCRASQSVSSSYLAWYQQKPGQAPRLLIYGASTRATGIPARFSGSGSGTEFTLTISSLQSEDFAVYYCQQYGSSPITFGQGTKVEIK
notes: IgG format
For B4, the results for the binding result in test [1] and in test [2] were “binds” and “no binding”, respectively.

B5: MAdCAM Antibody Table 2 clone 44 (antibody, V domains shown)
VH: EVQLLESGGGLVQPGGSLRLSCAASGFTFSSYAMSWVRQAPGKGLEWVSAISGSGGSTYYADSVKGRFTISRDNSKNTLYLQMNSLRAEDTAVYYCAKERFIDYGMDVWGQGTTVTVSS
VL: DIQMTQSPSSLSASVGDRVTITCQASQDISNYLNWYQQKPGKAPKLLIYAASSLQSGVPSRFSGSGSGTDFTLTISSLQPEDFATYYCQQTYSGWTFGPGTKVDIK
notes: IgG format
As for B5, the binding result in test [1] was “binds”; in test [2], “no binding”.

B6: MAdCAM Antibody Table 2 clone 34 (antibody, V domains shown)
VH: QVQLVQSGAEVKKPGASVKVSCKASGYTFTGYYIHWVRQAPGQGLEWMGWMNPNSGNTGYAQKFQGRVTMTRDTSTSTVYMELSSLRSEDTAVYYCARDPGFLGYCSGGSCYDGWFDPWGQGTLVTVSS
VL: DIQMTQSPSSLSASVGDRVTITCRASQSISSYLHWYQQKPGKAPKLLIYAASSLQSGVPSRFSGSGSGTDFTLTISSLQPEDFATYYCQQSYTAPYTFGQGTKLEIK
notes: IgG format
Take B6: the binding result in test [1] is on record as “binds”; in test [2], “no binding”.

B7: MAdCAM Antibody Table 2 clone 39 (antibody, V domains shown)
VH: QVQLVQSGAEVKKPGASVKVSCKASGYTFTSYYMHWVRQAPGQGLEWMAWMNPNSGNTGYAQKFQGRVTMTRDTSTSTVYMELSSLRSEDTAVYYCARDYDFWSGSLGYWGQGTLVTVSS
VL: DIQMTQSPSSLSASVGDRVTITCRASQGISNYLAWYQQKPGKAPKLLIYAASSLQSGVPSRFSGSGSGTDFTLTISSLQPEDFATYYCQQSYSTPWTFGQGTKVEIK
notes: IgG format
In the case of B7, the binding result in test [1] was “binds”; in test [2], “no binding”.

B8: MAdCAM Antibody Table 2 clone 42 (antibody, V domains shown)
VH: QVQLVQSGAEVKKPGASVKVSCKASGYTLTDYYMHWVRQAPGQGLEWMGIINPSGGSTSYAQKFQGRVTMTRDTSTSTVYMELSSLRSEDTAVYYCAREEYSSSSGYFDYWGQGTLVTVSS
VL: DIQMTQSPSSLSASVGDRVTITCRASQGISSWLAWYQQKPGKAPKLLIYAASSLQSGVPSRFSGSGSGTDFTLTISSLQPEDFATYYCQQSYSTPLTFGQGTKVEIK
notes: IgG format
For B8, the binding result in test [1] is on record as “binds”; in test [2], “no binding”.

B9: MAdCAM Antibody Table 2 clone 43 (antibody, V domains shown)
VH: QVQLVQSGAEVKKPGASVKVSCKASGYTFTSYGISWVRQAPGQGLEWMGWMHPKSGDTGLTQKFQGRVTMTRDTSTSTVYMELSSLRSEDTAVYYCARDTPYYYYGMDVWGQGTTVTVSS
VL: DIQMTQSPSSLSASVGDRVTITCRASQSISSWLAWYQQKPGKAPKLLIYAASSLQSGVPSRFSGSGSGTDFTLTISSLQPEDFATYYCQQSYSVPITFGQGTKVEIK
notes: IgG format
In the case of B9, the binding result in test [1] was “binds”; in test [2] it was “no binding”.

B10: MAdCAM Antibody Table 2 clone 56 (antibody, V domains shown)
VH: EVQLVESGGGLVKPGGSLRLSCAASGFTFSSYWMSWVRQAPGKGLEWVSAIGTGGGTYYAAPVKGRFTISRDDSKNTLYLQMNSLKTEDTAVYYCAREWLVPYYGMDVWGQGTTVTVSS
VL: DIQMTQSPSSLSASVGDRVTITCRASQSISRWLAWYQQKPGKAPKLLIYGASNLQSGVPSRFSGSGSGTDFTLTISSLQPEDFATYYCQQSYSTPWTFGQGTKVEIK
notes: IgG format
Consider B10, for which the binding result in test [1] is “binds”; in test [2], “no binding”.

B11: MAdCAM Antibody Table 2 clone 53 (antibody, V domains shown)
VH: QVQLVQSGAEVKKPGASVKVSCKASGYTFTSYYMHWVRQAPGQGLEWMGWMNPNSGNTGYAQKFQGRVTMTRDTSTSTVYMELSSLRSEDTAVYYCAREGLGYCTNGVCWNYYGMDVWGQGTLVTVSS
VL: DIQMTQSPSSLSASVGDRVTITCRASQGISSWLAWYQQKPGKAPKLLIYGASSLQSGVPSRFSGSGSGTDFTLTISSLQPEDFATYYCQQSYSTPYTFGQGTKVEIK
notes: IgG format
On to B11, for which the binding result in test [1] is reported as “binds”; in test [2], “no binding”.

B12: MAdCAM Antibody Table 2 clone 41 (antibody, V domains shown)
VH: QVQLVQSGAEVKKPGASVKVSCKASGYTFTSYYMHWVRQAPGQGLEWMGIINPSGGSTSYAQKFQGRVTMTRDTSTSTVYMELSSLRSEDTAVYYCARDTGYSYGRYYYYGMDVWGQGTLVTVSS
VL: DIQMTQSPSSLSASVGDRVTITCRASQSIGRWLAWYQQKPGKAPKLLIYDASNLQSGVPSRFSGSGSGTDFTLTISSLQPEDFATYYCQQSYSIPITFGQGTKVEIK
notes: IgG format
Consider B12, for which the binding result in test [1] is given as “binds”; in test [2], “no binding”.

B13: MAdCAM Antibody Table 2 clone 37 (antibody, V domains shown)
VH: EVQLLESGGGLVQPGGSLRLSCAASGFTFSDYGMPWVRQAPGKGLEWVSAISGSGGSTYYADSVKGRFTISRDNSKNTLYLQMNSLRAEDTAVYYCARDGGWQPAAILDYWGQGTLVTVSS
VL: DIQMTQSPSSLSASVGDRVTITCRASQGISNNLNWYQQKPGKAPKLLIYDASNLETGVPSRFSGSGSGTDFTLTISSLQPEDFATYYCQQSYSTPLTFGQGTKVEIK
notes: IgG format
In the case of B13, the binding result in test [1] is listed as “binds”; in test [2], “no binding”.

B14: MAdCAM Antibody Table 2 clone 38 (antibody, V domains shown)
VH: QVQLVQSGAEVKKPGASVKVSCKASGYTFTDYFLHWVRQAPGQGLEWMGWMNPTSGNTGYAQKFQGRVTMTRDTSTSTVYMELSSLRSEDTAVYYCAREGEGSGFDYWGQGTLVTVSS
VL: DIQMTQSPSSLSASVGDRVTITCRASQGINSWLAWYQQKPGKAPKLLIYDASNLETGVPSRFSGSGSGTDFTLTISSLQPEDFATYYCQQSYSTPLTFGGGTKVEIK
notes: IgG format
In the case of B14, the binding result in test [1] is “binds”; in test [2] it was “no binding”.

B15: MAdCAM Antibody Table 2 clone 64 (antibody, V domains shown)
VH: EVQLLESGGGLVQPGGSLRLSCAASGFTFSNSDMNWVRQAPGKGLEWVAHIWNDGSQKYYADSVKGRFTISRDNSKNTLYLQMNSLRAEDTAVYYCARDRTDPGYSSAMDVWGQGTTVTVSS
VL: DIQMTQSPSSLSASVGDRVTITCRASQDIRNYLGWYQQKPGKAPKLLIYDASSLETGVPSRFSGSGSGTDFTLTISSLQPEDFATYYCQQATSLPLTFGGGTKVEIK
notes: IgG format
Take B15: the figures for the binding result in test [1] and in test [2] were “binds” and “no binding”, respectively.

B16: MAdCAM Antibody Table 2 clone 61 (antibody, V domains shown)
VH: QVQLVQSGAEVKKPGASVKVSCKASGDTFTGYYIHWVRQAPGQGLEWMGWINPNSGGTNYAQKFQGRVTMTRDTSTSTVYMELSSLRSEDTAVYYCARSGLWLGSYYGMDVWGQGTLVTVSS
VL: DIQMTQSPSSLSASVGDRVTITCRASQTISIWLAWYQQKPGKAPKLLIYDASTLQSGVPSRFSGSGSGTDFTLTISSLQPEDFATYYCQQYSSYPLTFGQGTKVEIK
notes: IgG format
Take B16: the binding result in test [1] was “binds”; in test [2], “no binding”.

B17: MAdCAM Antibody Table 2 clone 59 (antibody, V domains shown)
VH: EVQLLESGGGLVQPGGSLRLSCAASGFSFSDYGMHWVRQAPGKGLEWVSAISGSGGSTYYADSVKGRFTISRDNSKNTLYLQMNSLRAEDTAVYYCARDGGWQPAAILDYWGQGTLVTVSS
VL: DIQMTQSPSSLSASVGDRVTITCRASQGISNNLNWYQQKPGKAPKLLIYDASNLETGVPSRFSGSGSGTDFTLTISSLQPEDFATYYCQQSYSTPLTFGGGTKVEIK
notes: IgG format
For B17, the binding result in test [1] is listed as “binds”; in test [2] it was “no binding”.

B18: MAdCAM Antibody Table 2 clone 62 (antibody, V domains shown)
VH: QVQLVQSGAEVKKPGASVKVSCKASGYTFTSYDINWVRQAPGQGLEWMGWINPNSGTTGYAQKFQGRVTMTRDTSTSTVYMELSSLRSEDTAVYYCARSPYYYYGMDVWGQGTTVTVSS
VL: DIQMTQSPSSLSASVGDRVTITCRASHFISRWVAWYQQKPGKAPKLLIYAASTLQSGVPSRFSGSGSGTDFTLTISSLQPEDFATYYCQQSYSGISFGPGTKVDIK
notes: IgG format
On to B18, for which the binding result was “binds” in test [1] and “no binding” in test [2].

The record behind these values is patent US20230235004A1 (published 2023).
